Measurements as given in the supplement of paper PMC11246515.
± gives the standard deviation of the averaged measurements.

Assay: total protein half-life in vivo (active degradation + dilution); higher = more stable protein
[1] = E. coli NCM3722 delta-clpP delta-lon delta-hslV, growth: N-lim chemostat, doubling time 6 h
[2] = E. coli NCM3722 delta-clpP, growth: N-lim chemostat, doubling time 6 h
[3] = E. coli NCM3722 delta-smpB, growth: N-lim chemostat, doubling time 6 h
[4] = wild type E. coli NCM3722, growth: C-lim chemostat, doubling time 3 h
[5] = wild type E. coli NCM3722, growth: C-lim chemostat, doubling time 6 h
[6] = wild type E. coli NCM3722, growth: N-lim chemostat, doubling time 6 h
[7] = wild type E. coli NCM3722, growth: N-lim chemostat, doubling time 12 h
[8] = wild type E. coli NCM3722, growth: P-lim chemostat, doubling time 6 h
[9] = wild type E. coli NCM3722, growth: P-lim chemostat, doubling time 12 h
[10] = E. coli NCM3722 delta-hslV, growth: N-lim chemostat, doubling time 6 h
[11] = E. coli NCM3722 delta-lon, growth: N-lim chemostat, doubling time 6 h
[12] = wild type E. coli NCM3722, growth: C-lim chemostat, doubling time 12 h

Sequence	total protein half-life in vivo [1] [h]	total protein half-life in vivo [2] [h]	total protein half-life in vivo [3] [h]	total protein half-life in vivo [4] [h]	total protein half-life in vivo [5] [h]	total protein half-life in vivo [6] [h]	total protein half-life in vivo [7] [h]	total protein half-life in vivo [8] [h]	total protein half-life in vivo [9] [h]	total protein half-life in vivo [10] [h]	total protein half-life in vivo [11] [h]	total protein half-life in vivo [12] [h]
MPAVIDKALDFIGAMDVSAPTPSSMNESTAKGIFKYLKELGVPASAADITARADQEGWNPGFTEKMVGWAKKMETGERSVIKNPEYFSTYMQEELKALV	1.25 ± 0.38	0.88	0.51	0.644 ± 0.18	0.706	0.681 ± 0.18	0.727 ± 0.045	0.402	1.25	–	–	–
MPDAVQAPYPAYRPEPNMQTITIAPPKRSWFSLLSWAVVLAVLVVSWQGAEMAPLTLIKDGGNMATFAADFFPPDFSQWQDYLTEMAVTLQIAVWGTALAVVLSIPFGLMSAENLVPWWVYQPVRRLMDACRAINEMVFAMLFVVAVGLGPFAGVLACWRCLSTPPACSPSCFPKRWKRLSPARWKAFAPPVPTSSKRSSTACCHR [P0DP69]	–	–	–	–	–	–	–	0.274 ± 0.32	0.661 ± 0.64	–	–	–
MPEATPFQVMIVDDHPLMRRGVRQLLELDPGSEVVAEAGDGASAIDLANRLDIDVILLDLNMKGMSGLDTLNALRRDGVTAQIIILTVSDASSDVFALIDAGADGYLLKDSDPEVLLEAIRAGAKGSKVFSERVNQYLREREMFGAEEDPFSVLTERELDVLHELAQGLSNKQIASVLNISEQTVKVHIRNLLRKLNVRSRVAATILFLQQRGAQ	5.05 ± 0.31	2.4265 ± 0.00011	2.02 ± 0.099	2.08 ± 0.15	3.41 ± 0.22	2.3 ± 0.18	2.86 ± 0.24	2.62 ± 0.31	4.65 ± 0.4	2.17 ± 0.36	4.47 ± 1.4	5.71 ± 1
MPEGPEIRRAADNLEAAIKGKPLTDVWFAFPQLKPYQSQLIGQHVTHVETRGKALLTHFSNDLTLYSHNQLYGVWRVVDTGEEPQTTRVLRVKLQTADKTILLYSASDIEMLTPEQLTTHPFLQRVGPDVLDPNLTPEVVKERLLSPRFRNRQFAGLLLDQAFLAGLGNYLRVEILWQVGLTGNHKAKDLNAAQLDALAHALLEIPRFSYATRGQVDENKHHGALFRFKVFHRDGEPCERCGSIIEKTTLSSRPFYWCPGCQH	5.54 ± 0.6	5.55 ± 0.23	4.38 ± 0.63	2.36 ± 0.55	–	5.45	11 ± 0.57	–	7.33	6.197 ± 0.018	6.19 ± 0.85	9.48
MPFKPLVTAGIESLLNTFLYRSPALKTARSRLLGKVLRVEVKGFSTSLILVFSERQVDVLGEWAGDADCTVIAYASVLPKLRDRQQLTALIRSGELEVQGDIQVVQNFVALADLAEFDPAELLAPYTGDIAAEGISKAMRGGAKFLHHGIKRQQRYVAEAITEEWRMAPGPLEVAWFAEETAAVERAVDALTKRLEKLEAK [P0ADP7]	5.27 ± 0.14	–	4.88 ± 0.14	2.77 ± 0.21	4.84 ± 0.24	4.76 ± 0.091	8.56 ± 0.1	4.93 ± 0.25	8.919 ± 0.012	–	4.977 ± 0.043	7.62 ± 0.27
MPFTLGQRWISDTESELGLGTVVAVDARTVTLLFPSTGENRLYARSDSPVTRVMFNPGDTITSHDGWQMQVEEVKEENGLLTYIGTRLDTEESGVALREVFLDSKLVFSKPQDRLFAGQIDRMDRFALRYRARKYSSEQFRMPYSGLRGQRTSLIPHQLNIAHDVGRRHAPRVLLADEVGLGKTIEAGMILHQQLLSGAAERVLIIVPETLQHQWLVEMLRRFNLRFALFDDERYAEAQHDAYNPFDTEQLVICSLDFARRSKQRLEHLCEAEWDLLVVDEAHHLVWSEDAPSREYQAIEQLAEHVPGVLLLTATPEQLGMESHFARLRLLDPNRFHDFAQFVEEQKNYRPVADAVAMLLAGNKLSNDELNMLGEMIGEQDIEPLLQAANSDSEDAQSARQELVSMLMDRHGTSRVLFRNTRNGVKGFPKRELHTIKLPLPTQYQTAIKVSGIMGARKSAEDRARDMLYPERIYQEFEGDNATWWNFDPRVEWLMGYLTSHRSQKVLVICAKAATALQLEQVLREREGIRAAVFHEGMSIIERDRAAAWFAEEDTGAQVLLCSEIGSEGRNFQFASHMVMFDLPFNPDLLEQRIGRLDRIGQAHDIQIHVPYLEKTAQSVLVRWYHEGLDAFEHTCPTGRTIYDSVYNDLINYLASPDQTEGFDDLIKNCREQHEALKAQLEQGRDRLLEIHSNGGEKAQALAESIEEQDDDTNLIAFAMNLFDIIGINQDDRGDNMIVLTPSDHMLVPDFPGLSEDGITITFDREVALAREDAQFITWEHPLIRNGLDLILSGDTGSSTISLLKNKALPVGTLLVELIYVVEAQAPKQLQLNRFLPPTPVRMLLDKNGNNLAAQVEFETFNRQLNAVNRHTGSKLVNAVQQDVHAILQLGEAQIEKSARALIDAARNEADEKLSAELSRLEALRAVNPNIRDDELTAIESNRQQVMESLDQAGWRLDALRLIVVTHQ	5.68 ± 0.18	5.48 ± 0.61	5.21 ± 0.39	3.11 ± 0.088	6.26 ± 0.79	5.09 ± 0.06	9.51 ± 1.1	6.156 ± 0.013	12.1 ± 1.1	5.139 ± 0.024	5.36 ± 0.42	12.5 ± 1.6
MPGKIAVEVAYALPEKQYLQRVTLQEGATVEEAIRASGLLELRTDIDLTKNKVGIYSRPAKLSDSVHDGDRVEIYRPLIADPKELRRQRAEKSANK	5.54 ± 0.24	5.02 ± 0.35	2.89 ± 0.05	2.87	5.02 ± 0.71	3.34 ± 0.09	5.54	5.31	8.44 ± 1	3.33	4.06	6.3 ± 3.5
